The supplement of paper PMC9170038

System: MS2 coat protein
Test: apparent KD of MS2 coat protein; designed switch direction (-1 OFF switch, 1 ON switch): -1; higher = weaker reporter binding
In short: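 Designed RNA switches with common flanks were made on Illumina chips by stalled E. coli RNA polymerase. Titration with SNAP-549-labelled MS2 coat protein doubled from 0.7 or 1.5 nM up to 3 µM. Apparent KD is each design's median over clusters after curve-fitting normalised fluorescence.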

[1] = input ligand: microRNA oligo, concentration not stated
[2] = Eterna round: R95, input ligand: microRNA oligo, concentration not stated
[3] = Eterna round: R95, input ligand: FMN 200 uM
[4] = Eterna round: R95, input ligand: none

| Sequence | apparent KD of MS2 coat protein (input ligand: FMN 200 uM) [nM] | apparent KD of MS2 coat protein [1] [nM] | apparent KD of MS2 coat protein (input ligand: none) [nM] | apparent KD of MS2 coat protein [2] [nM] | apparent KD of MS2 coat protein [3] [nM] | apparent KD of MS2 coat protein [4] [nM] |
| --- | --- | --- | --- | --- | --- | --- |
| CUGAAAGACGAAGGAUAUCCAGGCACCGGAGUAGGAGAAGGUCGUCCGGGUGUCCUAGAACUUGAGGAUCACCCAAGUAGAAGA [Mutated MS2 EX1.5] (Eterna round: R96, puzzle: Exclusion NG 1) | 34.4 | 36.9 | 24.7 |  |  |  |
| CUGAAAGACGAAGGAUAUCCAGGCGCCGGCGUAGGAGAAGGUCGUCCGGGUGUCCUAGAACUUGAGGAUCACCCAAGUAGAAGA [Mutated MS2 EX1.14] (Eterna round: R96, puzzle: Exclusion NG 1) | 36.8 | 24.9 | 53.1 |  |  |  |
| CUGAACCCGGUAGGAUAUAUUGUGGGCGGGCGUGGAACGACAUGAGGAUCACCCAUGUAAUUGAGGUAGAAGGGCCGAGAGGUU [Excl-NG2-LRO16] (Eterna round: R96, puzzle: Exclusion NG 2) | 38.5 | 30.4 | 43.8 |  |  |  |
| CUGAGCUGAGGAUAUACAUGAGGAUCACCCAUGUAAAGUAGCUUGCGUACAGGCAGAUGUAGAAGGCAGUUCGG [Mod of JL 2 - Jieux - Exclusion 3] (Eterna round: R97, puzzle: Exclusion 3) | 34.7 |  | 20.5 |  |  |  |
| CUGAGCUGAGGAUAUACAUGAGGAUCACCCAUGUGUUCGAGCUUGCGUACAGGCAGAUGUAGAAGGCAGUUCGG [JL-ex3-3.34 Brourd mod] (puzzle: Exclusion 3) |  |  |  | 23.8 |  |  |
| CUGAGGUAGCGGUCCUAUGACAUGAGGAUCACCCAUGUACCUUGCUUUGAGCAAUUUGCUCGUCUUAUGAUUCUCGG [Mat - Sensor v3 - turn-off var 1 - JL Mod - D46] (puzzle: Sensor v3, turn-off variant 1) |  |  |  | 468 | 446 | 533 |
| CUGAGGUAGCGGUCCUAUGACAUGAGGAUCACCCAUGUACCUUGCUUUGAGCUUUUUGCUCGUCUUAUGAUUCUCGG [JL Atriat mod 6] (puzzle: Sensor v3, turn-off variant 1) |  |  |  | 283 | 472 | 462 |
| CUGAGGUAGCGGUCCUAUGACAUGAGGAUCACCCAUGUGCCUUGCUACAAGCUUUUUGCUCGUCUUAUGAUUCUCGG [JL Atriat mod 9] (puzzle: Sensor v3, turn-off variant 1) |  |  |  | 107 | 47.8 | 51.9 |
| CUGAUGUGAGGAUAUGUGAUCUGCCUUCUAUGUAGAUGAUCACAGAAGGCACAUGAGGAUCACCCAUGUAGAUC [Ex4 - 3 - 26] (Eterna round: R96, puzzle: Exclusion 4) | 129 | 57.3 | 99.4 |  |  |  |
| CUGAUGUGAGGAUAUGUGAUCUGCCUUCUAUGUAGAUGAUCACAGAAGGCACAUGAGGAUCACCCAUGUAGAUC [Ex4 - 3 - 26] (puzzle: Exclusion 4) |  |  |  | 69.7 |  |  |
| CUGCUCCGUGUAGGAUAUGCAUACUCCCAUUAUGCAGAAGGACAUGAGGAUCACCCAUGUAUGUUAUUAUCAUGUGUUGCGUGC [Design 12] (Eterna round: R96, puzzle: Exclusion NG 1) |  | 30 |  |  |  |  |
| CUGCUGGAGCUUUGCUUUAGUCGUACAUGAGGAUCACCCAUGUAGGAUAUGGUAGGCUUUGCUUACUAGAAGGAUAGAGUGGUC [salish99_ExNG3_r04_606] (Eterna round: R96, puzzle: Exclusion NG 3) | 226 | 66.6 | 62 |  |  |  |
| CUGGACUGAGGAUAUUGUGCUGCUGACAUGAGGAUCACCCAUGUAUGUUAACUCGGCCGUCGAGAAGGCAGACAGG [BotMod 18 - Jieux - Exclusion 5] (Eterna round: R97, puzzle: Exclusion 5) | 16.5 |  | 19.1 |  |  |  |
| CUGGUCCGAGGAUAUAUGAUGUGAUACAUGAGGAUCACCCAUGUUAUAUUAUGGAUGUAAAUAGAAGGCGGACUAG [Mat - Exclusion 5 - JL mod - D71] (puzzle: Exclusion 5) |  |  |  | 72.2 | 71.2 | 73.9 |
| CUGGUCCGAGGAUAUAUUAAGUGAAACAUGAGGAUCACCCAUGUAAUUUAAUGGAUGUAAAUAGAAGGCGGACUAG [Mat - Exclusion 5 - JL mod - D39] (puzzle: Exclusion 5) |  |  |  | 35.3 | 38.9 | 36.4 |
| CUGGUCCGAGGAUAUAUUAAGUGAUACAUGAGGAUCACCCAUGUUAUUUGAUGGAUGUAAAUAGAAGGCGGACUAG [JL-ex5-3.17] (puzzle: Exclusion 5) |  |  |  | 38.9 | 37.1 | 45.2 |
| CUGGUCCGAGGAUAUAUUAUGUGAUACAUGAGGAUCACCCAUGUUAUAUGAUGGAUGUAAAUAGAAGGCGGACUAG [JL-ex5-3.15] (puzzle: Exclusion 5) |  |  |  | 43.4 | 48 | 58.5 |

| Sequence | apparent KD of MS2 coat protein (input ligand: FMN 200 uM) [nM] | apparent KD of MS2 coat protein [1] [nM] | apparent KD of MS2 coat protein (input ligand: none) [nM] | apparent KD of MS2 coat protein [2] [nM] | apparent KD of MS2 coat protein [3] [nM] | apparent KD of MS2 coat protein [4] [nM] |
| --- | --- | --- | --- | --- | --- | --- |
| CUGGUGUGAGGAUAUCAGGACACGCCCGAGGGCGUGUCAAAUGAGAAGGCACAUGAGGAUCACCCAUGUGGGAC [Atisrage] (puzzle: Exclusion 4) |  |  |  | 39.8 |  |  |
| CUGUAACGAGCGUGAGCCUACAUGAGGAUCACCCAUGUGCUCGUCUUAUAACGUACUGUCACGUUAGUGAUAGUGCG [Sensor v3, turn-off variant 1 (MOD of Eli's v1-13 v.3)] (puzzle: Sensor v3, turn-off variant 1) |  |  |  | 297 | 115 | 104 |
| CUGUAGUCAGGAUAUACAUGAGGAUCACCCAUGUAAAAUUUUAAUUUAAUUUGAAGGUGUAGAAGGGACCAGUC [Ex3 #26] (Eterna round: R97, puzzle: Exclusion 3) | 30.1 |  | 38.5 |  |  |  |
| CUGUGCACGCUGCGGUCCUACAUGAGGAUCACCCAUGUGGUCUGGUGGCGUGGGUCGCCGGACUUGGCUCGUCUUGA [salish99_S_TOV1_R5_023] (Eterna round: R97, puzzle: Sensor, turn-off variant 1) | 19.1 |  | 19.2 |  |  |  |
| CUGUUCCAUGUAGGAUAUGCAUAUUCUCAUUAUGCAGAAGGACAUGAGGAUCACCCAUGUAUGUUAUUAUCAUAUGUUACAUGU [Design 4] (Eterna round: R96, puzzle: Exclusion NG 1) |  | 27.2 |  |  |  |  |
| CUGUUUUUCGCAGGAUAUGCUCCUCCAUUAUUUGCAGAAGGGCGUUAAACAUGAGGAUCACCCAUGUAUGGUAAUGACUAUUGC [JR_ExcNG1_Sub066] (Eterna round: R96, puzzle: Exclusion NG 1) | 27.4 | 12.6 | 19.6 |  |  |  |
| CUGUUUUUCGCAGGAUAUGCUCCUCCAUUAUUUGCAGAAGGGCGUUGAACAUGAGGAUCACCCAUGUAUGGUAAUGACUAUUGC [JR_ExcNG1_Sub067] (Eterna round: R96, puzzle: Exclusion NG 1) | 23.5 | 14.7 | 22.4 |  |  |  |
| CUUAAACAUGAGGAUCACCCAUGUCAGGAUAUGAUACUAUGUACUUCGGUACAUAGUAUCAGAAGGGAUAUGAA [Ex1-3: 64] (puzzle: Exclusion 1) |  |  |  | 43.1 |  |  |
| CUUAAUUGUCACAUGGGUGACAUGAGGAUCACCCAUGUCACAAGCUUUUUGCUCGUCUUAUAAUUAACCCAUGUGAC [Stov1/12-A3] (Eterna round: R97, puzzle: Sensor, turn-off variant 1) | 13.7 |  | 13.3 |  |  |  |
| CUUAAUUGUCAGAUGGGUGACAUGAGGAUCACCCAUGUCACAAGCUUUUUGCUCGUCUUAUAAUUAACCCAUCUGAC [Stov1/11-A4] (Eterna round: R97, puzzle: Sensor, turn-off variant 1) | 13.5 |  | 13.4 |  |  |  |
| CUUAGACAUGAGGAUCACCCAUGUGAGGAUAUGAAAUUAAUUAAUUAUGAAGUAUGAAUCAGAAGGCACAUAUG [Mat - Mod of Hyphema D35] (puzzle: Exclusion 1) |  |  |  | 78.6 | 71.7 | 118 |
| CUUAGACAUGAGGAUCACCCAUGUGAGGAUAUGAUGCGAAUAAAGAAAGAAGAAAGCAUCAGAAGGCACAUAUG (Eterna round: R96, puzzle: Exclusion 1) | 382 | 94.1 | 125 |  |  |  |
| CUUAGACAUGAGGAUCACCCAUGUGAGGAUAUGAUGCGAAUAAAGAAAGAAGAAAGCAUCAGAAGGCACAUAUG [Fiskers Ex 1 - 1] (puzzle: Exclusion 1) |  |  |  | 121 | 111 | 97.9 |
| CUUAGACAUGAGGAUCACCCAUGUGAGGAUAUGAUGCGAUCGUCGAAAGACGAUAGCAUCAGAAGGCACAUAUG [Fiskers Ex 1 - 6] (puzzle: Exclusion 1) |  |  |  | 132 |  |  |
| CUUAGCCUAAAAUCACGCAAGCUUUUUGCUUGUCUUAAGACAUGAGGAUCACCCAUGUCCGGGCUGAACUUAUGGAA [Zarebe] (puzzle: Sensor v3, turn-off variant 2) |  |  |  | 20.4 | 17.5 | 17.1 |
| CUUAGUUGGUAAGGAUAUCCUACAUUGUUCUGGCCCGGGCAUGCUACAUGAGGAUCACCCAUGUGGGAGAAGGUGCGUCAUCGC [Design 18] (Eterna round: R96, puzzle: Exclusion NG 2) | 57.4 | 45.1 | 53.6 |  |  |  |
| CUUCACGGAGGAUAUGCGGGCUGCGACAUGAGGAUCACCCAUGUUUAUGGAGCUUGGCAUGCAGAAGGCCGGGAGC [Eternabot (L2) Solution 19] (Eterna round: R97, puzzle: Exclusion 5) | 9.81 |  | 10.6 |  |  |  |
